We go through one substance from PMC4935573.

Experiment [1] addresses regulatory domain of human tryptophan hydroxylase 1, C64S (RDTPH1 C64S) (human) (UniProt P17752). As to the kind of experiment: SEC.
For experiment [2] the target is unchanged. As to the kind of experiment: AUC.
Experiment [3] shares this target. As to the kind of experiment: SEC. The source holds these as a separate data set. (SEC sorts molecules by how far they enter the pores of the column.)

Several values for one entry are separate records, joined by “and”; a condition that tells them apart may be missing. Equal values may be shown once.

As a reminder, the stoichiometry N is a count of units in the complex or per binding partner.

Turning to “regulatory domain of human tryptophan hydroxylase 1, C64S (RDTPH1 C64S) (from UniProt P17752 1-101) (domain or fragment)”, the stoichiometry N in experiment [1] is 2; in experiment [2] it was 2; in experiment [3], 2 and 4.
